How the values were obtained:
[1] = biological target: microtubules (porcine brain tubulin, taxol-stabilized) (porcine) (UniProt P02550); experiment: co-sedimentation; high-speed cosedimentation; 1 uM tubulin (MTs) with 1-12 uM FH1FH2; bound against free protein fitted with a hyperbolic function; methods in the supplement
[2] = biological target: actin filaments (rabbit muscle actin, polymerized) (rabbit) (UniProt P68135); experiment: co-sedimentation; high-speed cosedimentation; 3 uM actin (AFs) with 0.25-8 uM FH1FH2; bound against free protein fitted with a hyperbolic function; three independent experiments; methods in the supplement

Sequence of OsFH15 FH2 (truncated recombinant protein containing the FH2 domain of OsFH15) (Q69MT2 340-768): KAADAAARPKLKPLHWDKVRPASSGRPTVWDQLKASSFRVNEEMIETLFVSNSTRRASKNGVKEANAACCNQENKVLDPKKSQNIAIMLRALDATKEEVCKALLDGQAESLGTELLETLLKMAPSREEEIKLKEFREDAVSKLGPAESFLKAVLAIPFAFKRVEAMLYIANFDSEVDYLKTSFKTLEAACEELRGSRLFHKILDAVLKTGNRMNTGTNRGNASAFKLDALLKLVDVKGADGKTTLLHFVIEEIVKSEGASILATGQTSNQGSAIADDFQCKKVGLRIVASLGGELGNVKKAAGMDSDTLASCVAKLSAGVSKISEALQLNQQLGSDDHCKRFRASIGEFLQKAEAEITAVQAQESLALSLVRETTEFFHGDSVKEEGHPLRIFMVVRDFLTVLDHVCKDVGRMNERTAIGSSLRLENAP

Row | Substance | Kd [1] [nM] | Kd [2] [nM]
1 | OsFH15 FH2 (truncated recombinant protein containing the FH2 domain of OsFH15) (from UniProt Q69MT2 340-768) (domain or fragment) | 1810 | –
2 | OsFH15 FH1FH2 (truncated recombinant protein containing the FH1FH2 domain of OsFH15) (domain or fragment) | 1020 | 820
